These results are taken from patent US20220356255A1 (CENTESSA PHARMACEUTICALS UK, published 2022).

The IC50 is the midpoint of a concentration-inhibition curve. Read a high IC50 as lower potency. As usually defined, the EC50 is the concentration needed to bring the measured effect to its halfway point. Low readings indicate an effect from little substance, high ones a need for much substance. One may read the koff as a measure of how fast the partners let go of each other. A lower koff goes with a long-lived complex. A word on the Kd: it is the concentration at which binding is half-saturated. A lower Kd goes with a tighter complex. Broadly, the kon is a measure of how fast the partners come together.

The target of test [1] is T1, human PD-L1-Fc protein (human, UniProt Q9NZQ7 19-239).
T1 construct: Bought from R&D Systems; also called immobilised PD-L1-Fc; not shown: Fc part of the bought fusion protein, not described
Description: BIAcore off rate, unpurified periplasmic extract Fab on PD-L1. For orientation: In SPR one partner is held on a chip, and binding of the other changes the refractive index at the surface.

Test [2] has as its target T2, biotinylated human PD-L1 (human, UniProt Q9NZQ7 19-239, limits assumed, biotinylated (sites not given)).
T2 construct: Bought from R&D Systems; also called biotinylated-PD-L1; human PD-L1 biotin
Description: competition ELISA, Fab with biotinylated PD-L1 on coated PD-1-Fc, pH 7.4.

In test [3] the target is T3, human PD-L1 on cells (human, UniProt Q9NZQ7 19-290).
T3 construct: Endogenous on MDA-MB-231 cells or transfected into HEK293FF cells (Sino Biological plasmid); the assay field says which; also called native PD-L1 on MDA-MB-231 cells; PD-L1 expressing MDA-MB-231 cells
The test can be described thus: flow cytometry on MDA-MB-231 cells, Krebs buffer, pH 7.4. Here is the method:
(§1) Anti-PD-L1 affinity matured Fabs were tested for their ability to bind to native PD-L1 in a cell line, (MDA-MB-231 cells) in a buffer resembling the tumor microenvironment (Krebs-lactate).
(Flow cytometry measures light scatter and fluorescence of single cells or particles in a stream.)

In test [4] the target is T3, human PD-L1 on cells. Description: flow cytometry on MDA-MB-231 cells, Krebs buffer; ratio of EC50 values. Here is the method:
as §1

Test [5] deals with T2, biotinylated human PD-L1. The test can be described thus: competition ELISA, Fab with biotinylated PD-L1 on coated PD-1-Fc, pH 6. On the technique in general: ELISA stands for enzyme-linked immunosorbent assay.
Test [6] addresses T1, human PD-L1-Fc protein. The test can be described thus: ELISA, Fab on coated human PD-L1-Fc, pH 6.
Test [7] concerns the target T1, human PD-L1-Fc protein. Description: BIAcore off rate, unpurified periplasmic extract Fab on PD-L1, pH 7.4.
Test [8] addresses T3, human PD-L1 on cells. Description: flow cytometry on MDA-MB-231 cells, Krebs buffer, pH 6.5. Here is the method: as §1
The target of test [9] is T2, biotinylated human PD-L1. Description: competition ELISA, Fab with biotinylated PD-L1 on coated PD-1-Fc, pH 6.5.
The target in test [10] is T1, human PD-L1-Fc protein. The test can be described thus: ELISA, Fab on coated human PD-L1-Fc; ratio from extrapolating an OD of 0.3 at pH 6 versus pH 7.4.
Test [11] deals with T1, human PD-L1-Fc protein. Description: ELISA, Fab on coated human PD-L1-Fc, pH 7.4; pH 7.4.
Test [12] concerns the target T2, biotinylated human PD-L1. The test can be described thus: competition ELISA, Fab with biotinylated PD-L1 on coated PD-1-Fc, pH 6. This is another data set of the same source.
For test [13], the target named is T2, biotinylated human PD-L1. The test can be described thus: competition ELISA, Fab with biotinylated PD-L1 on coated PD-1-Fc.
Test [14] concerns the target T3, human PD-L1 on cells. Description: flow cytometry on MDA-MB-231 cells, Krebs buffer, pH 6. Here is the method: as §1
Test [15] has as its target T1, human PD-L1-Fc protein. Description: BIAcore off rate, unpurified periplasmic extract Fab on PD-L1, pH 6.
Test [16] concerns the target T2, biotinylated human PD-L1. Description: competition ELISA, Fab with biotinylated PD-L1 on coated PD-1-Fc; ratio of IC50 values.
The target of test [17] is T1, human PD-L1-Fc protein. The test can be described thus: ELISA, purified Fab on coated human PD-L1-Fc, pH 6 (FIG. 4).
Test [18] concerns the target T1, human PD-L1-Fc protein. Description: SPR BIAcore, mAb over immobilised PD-L1-Fc. Here is the method:
(§2) To assess the affinity of selected IgG formatted purified clones to human PD-L1 at pH6.0 and at pH7.4, human PD-L1-Fc protein was coated by amine coupling. Surface plasmon resonance (SPR) (BIAcore 3000, GE Healthcare) was used to determine the binding kinetics of selected IgG formatted purified clones to human PD-L1 at pH6.0 and at pH 7.4. Approximately 3000 RU of human PD-L1 Fc (R&D Systems) at 50 μg/ml in Acetate buffer pH 5.0 was immobilized onto a CM5 chip using the standard amine coupling procedure. QC of the PD-L1 immobilization was performed using an anti-PD-L1 commercial antibody (R&D systems cat. no. AF156) at 2.0 μg/ml. 1×HBS-EP pH 7.4 or HBS-EP pH 7.0 or HBS-EP […] citrate buffer pH 6.5 or HBS-EP […] citrate buffer pH 6.0, were utilized as running buffers during binding kinetic measurements. […] Fitting 1:1 binding with mass transfer was applied to the curves using the BIAevaluation software to calculate the kinetic constants of the antibody-antigen interactions including association rate (ka), dissociation rate (kd) and affinity (KD).

Test [19] addresses T2, biotinylated human PD-L1. Description: competition ELISA, mAb with biotinylated PD-L1 on coated B7-1-Fc (CD80) (FIG. 1B); PD-L1 binding to CD80 (FIG. 1B).
The target in test [20] is T1, human PD-L1-Fc protein. Description: SPR BIAcore, mAb over immobilised PD-L1-Fc, pH 6.0.
In test [21] the target is T3, human PD-L1 on cells. The test can be described thus: flow cytometry on MDA-MB-231 cells, Krebs buffer with lactate, pH printed as 6.6 (FIG. 3); pH printed as 6.6 (experiment described at pH 6.5); pH 6.6. As to the method: (§3) In order to mimic an acidic tumor environment milieu with tumor cells expressing PD-L1 (The metabolism of tumors in the body, Warburg et al. J Gen Physiol. 1927; 8:519-30) the following buffers were utilised: Krebs ringer bicarbonate buffer (KRB, Amsbio catalog number KRB-1000) with 1 mM lactic acid (Sigma catalog number 252476-50DG) for pH 7.4; KRB plus 15 mM lactic acid for pH 6.5 and KRB plus 20 mM lactic acid for pH 6.0). 3 fold dilutions (100 nM to 0.0005 nM; 0) of the Fabs or IgG were prepared in the respective pH buffers and incubated with 0.60E05 MDA-MB-231 cells for 60 minutes at 4° C. The cells were then washed 3× with the respective pH buffers, at 300 g for 3 min. The cells were then incubated with 50 μl of anti-human IgG (Fab specific)-FITC (Sigma, catalog number F5512-1ML) at 1:100 dilution in the respective pH buffers. Binding of the IgG or Fab to PD-L1 expressing cells was measured by FACS (Attune Nxt) and a total of 10.000 cells were acquired per sample.

Test [22] deals with T1, human PD-L1-Fc protein. The test can be described thus: SPR BIAcore, mAb over immobilised PD-L1-Fc, pH 7.0. As to the method: as §2
In test [23] the target is T3, human PD-L1 on cells. The test can be described thus: flow cytometry on MDA-MB-231 cells, Krebs buffer with lactate, pH 7.4 (FIG. 3); pH 7.4. Here is the method:
as §3

Test [24] concerns the target T1, human PD-L1-Fc protein. Description: SPR BIAcore off rate, mAb over immobilised PD-L1-Fc (FIG. 2). As to the method:
as §2

The target of test [25] is T1, human PD-L1-Fc protein. Description: SPR BIAcore, mAb over immobilised PD-L1-Fc, pH 7.4. Here is the method:
as §2

Test [26] addresses T1, human PD-L1-Fc protein. The test can be described thus: SPR BIAcore, mAb over immobilised PD-L1-Fc, pH 6.5. As to the method:
as §2

The target of test [27] is T2, biotinylated human PD-L1. Description: competition ELISA, mAb with biotinylated PD-L1 on coated PD-1-Fc (FIG. 1A); PD-L1 binding to PD-1 (FIG. 1A).
Test [28] concerns the target T3, human PD-L1 on cells. The test can be described thus: flow cytometry on MDA-MB-231 cells, Krebs buffer with lactate, pH 6.0 (FIG. 3); pH 6.0. As to the method:
as §3

Some results are limits rather than exact numbers.

T2 sequence (Q9NZQ7 19-239 limits assumed): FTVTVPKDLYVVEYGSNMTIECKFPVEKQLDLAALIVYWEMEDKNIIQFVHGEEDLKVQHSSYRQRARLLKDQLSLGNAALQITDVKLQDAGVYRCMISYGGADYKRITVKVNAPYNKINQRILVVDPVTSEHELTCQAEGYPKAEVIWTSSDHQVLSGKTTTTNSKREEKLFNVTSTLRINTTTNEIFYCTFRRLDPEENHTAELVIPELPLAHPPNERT
T1 sequence (Q9NZQ7 19-239 limits assumed): as above
T3 sequence (Q9NZQ7 19-290 limits assumed): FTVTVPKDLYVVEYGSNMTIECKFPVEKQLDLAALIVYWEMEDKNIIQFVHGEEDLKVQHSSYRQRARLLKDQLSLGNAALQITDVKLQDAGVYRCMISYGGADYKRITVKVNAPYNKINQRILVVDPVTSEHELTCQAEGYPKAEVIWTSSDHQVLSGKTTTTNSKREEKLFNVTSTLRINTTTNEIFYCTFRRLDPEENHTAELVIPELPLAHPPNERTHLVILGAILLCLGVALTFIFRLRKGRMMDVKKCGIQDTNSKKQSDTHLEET

B1: Fab 8D06 (Fab, V domains shown)
VH: QVQLVQSGGGVVQPGRSLRLSCAASGFTFSSYGMYWVRQAPGKGLEWVAVISYDGSNKYYADSVKGRFTISRDNSKNTLNLQMNSLRAEDTAVYYCAKGALTHWGVVIGDGMDVWGQGTTVTVSS
VL: NFMLTQPHSVSESPGKTVTISCVLSPRTHAGHYYRWYQQRPGSSPTTVIYEDDQRPSGVPDRFSGSIDSSSNSASLTISGLKTEDEADYYCQSFDSTNPWVFGGGTKLTVL
notes: Purified Fab prepared from IgG with the Pierce kit; also called 8D06 Fab
Take B1: in the test with human PD-L1-Fc protein [1], the “Ratio pH 6 vs 7.4” value came to 20. Moreover, the IC50 was above 100 nM in the test with biotinylated human PD-L1 [2], 40 nM with biotinylated human PD-L1 [9] and 13.1 nM with biotinylated human PD-L1 [12]. Besides, the EC50 is 16 nM with human PD-L1 on cells [3]; 0.11 nM with human PD-L1-Fc protein [6]; 2.92 nM in the test with human PD-L1 on cells [8]; above 10 nM in the test with human PD-L1-Fc protein [11]; 1.45 nM with human PD-L1 on cells [14]. In addition, the “Ratio pH 6:7.4” value with human PD-L1 on cells [4] is 11; in the test with human PD-L1-Fc protein [10] it was 39; with biotinylated human PD-L1 [16], above 7.63. Moreover, the “fold less (IC50) than the control Fab 2.7A04OPT at pH 6” value with biotinylated human PD-L1 [5] was around 3 fold. Further, the figures for the koff in the test with human PD-L1-Fc protein [7] and with human PD-L1-Fc protein [15] were 0.00345 s⁻¹ and 0.000699 s⁻¹, respectively. In addition, the “fold less inhibitory activity at pH 6.5 than at pH 6” value with biotinylated human PD-L1 [13] was around 3 fold. For the same molecule, the “concentration at saturation of binding” value with human PD-L1-Fc protein [17] was determined as 4 nM.

B2: mAb 2A09 (antibody, V domains shown)
VH: QVQLVQSGGGVVQPGRSLRLSCAASGFTFSSYGMYWVRQAPGKGLEWVAVISYDGSNKYYADSVKGRFTISRDNSKNTLNLQMNSLRAEDTAVYYCAKGALTHWGVVIGDGMDVWGQGTTVTVSS
VL: NFMLTQPHSVSESPGKTVTISCTRSSGSIASNYVQWYQQRPGSSPTTVIYEDDQRPSGVPDRFSGSIDSSSNSASLTISGLKTEDEADYYCQSFDSTNPWVFGGGTKLTVL
notes: Fully human; also called 2A09_WT; 2A09 WT
Consider B2, for which, in the test with human PD-L1-Fc protein [18], the “fold higher affinity at pH 6 than at pH 7.4” value is around 20 fold. The concentration for half-maximal inhibition (IC50) in the test with biotinylated human PD-L1 [19] stood at 1.2 nM; with biotinylated human PD-L1 [27], 0.4 nM. For the same molecule, the Kd with human PD-L1-Fc protein [20] turned out to be 0.13 nM; with human PD-L1-Fc protein [22], 0.57 nM; with human PD-L1-Fc protein [25] it was 2.6 nM; with human PD-L1-Fc protein [26], 0.18 nM. The koff in the test with human PD-L1-Fc protein [20] is 0.000865 s⁻¹; in the test with human PD-L1-Fc protein [22], 0.00711 s⁻¹; in the test with human PD-L1-Fc protein [25], 0.0271 s⁻¹; in the test with human PD-L1-Fc protein [26] it was 0.00129 s⁻¹. Besides, the kon in the test with human PD-L1-Fc protein [20] was 6.77e+06 M⁻¹ s⁻¹; in the test with human PD-L1-Fc protein [22] it was 1.25e+07 M⁻¹ s⁻¹; with human PD-L1-Fc protein [25] it was 1.05e+07 M⁻¹ s⁻¹; in the test with human PD-L1-Fc protein [26], 7.36e+06 M⁻¹ s⁻¹. Further, the values for the EC50 in the test with human PD-L1 on cells [21], with human PD-L1 on cells [23] and with human PD-L1 on cells [28] were 6.1 nM, 16.3 nM and 2.4 nM, respectively. Also, the “fold better off rate at pH 6.0 than at pH 7.4” value with human PD-L1-Fc protein [24] is around 5 fold.
